Data from the NTF2 design screens of Basanta et al. (2020).

experiment: protease stability score; higher = more stable; yeast display proteolysis, trypsin and chymotrypsin;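 further: log10 excess protease needed over predicted unfolded state with 0 meaning unfolded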

Sequence	protease stability score
DEEEVQKILKTMNELLKHNDFDSLARQADPNAEFHVGDKRVHGREQVQTMLQDLRERIDHVEIRSMTAQGDKFKLDFLENVNGRRTRVTAHADVHNGRIKSVEYRTS	-0.619
DEEEVRELAERFAENLERGDFHKVANQADPNARMQIGDTRYHGREELQRFLKELMERVDHLQIRSVKVRGNHVTIRMHVHYNGKSVDMHMTFHAKNGKIKHVEFNPKDFDKARR	0.813
DEEEVRKVLERLQKAVEKGNADEIAKLLKDDGEFVLIDERYKGQEDAKQVIKELQDKGFEFHTEEIQVKGGTAEVKTVWRVGDRELHLKVRYVVRGDKVDQVHAQWSKDAKEDLKKG	0.691
DEEEVRRIAHEFLKAVERGDEKRVRQLADKDVRAVVGDKRIHGKKDLAKLVKTLRDRADQFKVRDLEVQGNHVEVDLVMIVNGQSVDMSINIVVHNGTIHHMEIRVTDEDRMREVNS	-0.053
DEEEVSRILKKVLTAVRKNDPDTLMRLADKNARFHYGDRTYRGREQARRWMEDVRTHADHARINSFTVTGNKARADIRFDINGEERRVDMVIVVHNGKIHDLVVEDR	1.3
DEEEVTKVVKKLRENDRDSQRDLFDKDVRVKIGDKNVHGREQAVTFWDRFLNSVDRYHVDSVEIDGDQIKIDARAVVNGRKVRYVVVYTVRNGRIKEASVHFTNEDEEKEFEKNVG	1.28
DEEEWKELNKEISRIDQHGDERDLARLVDENAKIQIGDKTIRGREDLEKQFDRLRDRFDHIQVQHVENQGDKIRVEVVQRHNGRDETHVKTVKLENGRIKHMEMQHK	-0.186
DEEFAKTVVQMFRNWVHGDPSDMTRMLDENAHVVIGDTTLRGRDDVSRYVNELHDHMRFHVDRLSEENRPGRAVVKAQNNNVHNGEPTTNRAVVEVNVKNGKAQDIQYNSDK	-0.36
DEEFEQNAKEWLTAIKENDPDQVRDLVDEDVRFNVGNKKVHGRERWKHLVETENKELRVEYESIDVKVNGDKAEFNATVTVEVNGKPAHFHVNMKMQAHNGRIKHVSQNMSHEDQEKFRK	-0.118
DEEFLKRLVKILRTGDPDKLVNNFDKNARLEYGDKTVEGKNRIKKFMKDLHDRVDHFDIESVTLEPNHLDFTMKAQINGRDVKVRVRVEVHNGKIKHATYKYTNEDQERNMKHVKS	0.561
DEEFLRLIEEFWRAVKQNDEERLKHLLDENAKVKVGDKRLRGHEQVAKSIVDDQREMRIEMRIHKVEVDGNKVDVTYVVVFNVNGRPVSDSVRVIFRAKNGRIQMIEVRVDPDSAREQKS	1.37
DEEFNKEVKKMFDNLEKGNEEEYLRMLDENAKAQYGDHDVRGREELKKELHRQRKEIRVKYQSVDIRMHNGELSVRFRAEVVVNGRPHTVERTQSAKVQNGRVQSMKLKIDEEQKERLEG	-0.251
DEEFNKVLEEALHAMHKGDPDKLNKNLDEDAKIKYGDKTVHGREDATKLLETIVKNARIQIDSFRVTSRGEKAVADVRLRYRINGKPIDVKMIIYAKNDNGRIKEVEYKIDPDELRKVEG	1.28
DEEFQTEAEKMFTNQRNNNEDHLKDQFDKDAKVQVGDKEFHGTERYEETFRTQMEHMRYDIDSFTARVHGEDLDVDVSFQFESNGKPDRNRAKIIATYHNGRIKHLRVDQDQ	0.073
DEEFRHKVAKALQSNNEHQLHELMDKDAKMTIGDKTVHGREEIHRVLRRLREQADHWHVSRFKIHNGKIVADVQVHINGQTYHMTITAFARGDRIERLEYTVRDEDLLRKIQRWLG	1.97
DEEFRHQVKQFLRAETRGNEETLKEQMDKDATFEVGDRVINGHEKYASDQHERRKEIRVEIKSMEVDAQGNTADYEIDFVEHFDGKPHRRKVRASIRVHNGRVKEIVEKDSQ	-0.184
DEEFVRTVVKAHEENDEKKFNDLMDKDVKVDIGNKELRGRDQARKQLHHLRDKIDHYHVKSVTFKGNRIQIKAEFQVDGRRISAIYQQDVHNGHITSFRVSVTDPRDKHKLDEIVG	0.151
DEEHAEELMKRWMEVVKKGDKDTVKELYKPNGTWRNVDEEHQGVEQVQKMMKKIQDVGVEFQVRKAKVEGDRVTVVYDVRAGDVEVTFTVQMDVDGGRVELVQVKVDEDAKKAVKTG	0.034
DEEHAESVKTLFKNLRTNNEDEVEKLVDPNARMKYGDKQVHGRDEIKHMIQRLKDELHIEMDVKRMNVHNGQADLKFDITVVRNGKPDTAKANVRVQFSNGRIHDFTVQLNK	0.347
DEEHAHEMLKVVKVLIEGDPDQAHDMVDPNARFKVGDQTFSGRESFRNHVRHTNEESSLHLKSLDAQDHGDKVTIKVEFVRDTNGNPRHMRLEVRARLHNGRVTHAEFEDRK	-0.001
DEEHAKRINENIKHGNWDELVKQFDENAKLVIGDKEYHGREEIKKAMDLFKKHADHFEIKSYDNQGEKMSATYVIQVNGKRATVKMRVTFQGDKVKRYELHATSEHNERILKEAIE	1.12
DEEHARELVENFKRNNWQEFEKMADKDVRAHVGDWNVHGRETFSRMMKHLVDQIDHISVDSVDVDEDTVEIHFSFDINGQDVTAVLRVELHNGKIKSMELDARDENARDVLRKVWR	0.099
DEEHARTFMEEWQKAVQKGDHKRAQEIYKPNVEWVAGDKQTQGTDVVREMLEKAQKMGVEFQVRRAEVEGNKVRFQYDVRHGNETVTFHVEVTVQGGKIDRVQVKFDEKAQKVQKEG	1.07
DEEHDEKVARSVARNITHGNEKSLRKQLPEDARVVYGDKTYHGRERAANVAKEFDERADHNRVDDLRVQNGRAELIFIVNVDGKNVRAVMIVDVHNGKAKLVMIKWTNPDDQRDLEK	0.159
DEEHELDMARKMFEAVKQGDEEEVQRNAPPDVRMEIGDRTYHGREQVRKAAKEFQKRVDHMQLDSVKLHNGDVHAKVILNINGKNNDVVVQIHIDNGRITELRFKTS	-0.06

Sequence	protease stability score
DEEHIEEVQRRFISAFKDGDEDQMQRQMDPNVKLVIGDTTIHGRESAAKSLANIVRKVDHVDVESYEVRGNQASMIMRVEINGKDDRLDFQIEIHNGHIKRLEIQSS	0.692
DEEHITNVVKKMVNALRTGDPDTARELADPNVTAEYGDKEIRGREEVSKMVKLLHKQADHVTVKDVKVTNGHMEVRRRQHVNGKEIQMTLEARVHNGKIQEMRVHKK	-0.305
DEEHKAKDAARRMQEVARRNDPTQAKEMIPPDAKVRVGDKDVHGREQVVTLFKKIADQADHLDIQVSSVDIQGDRAVVVFNLRYTINGQDRRNRVVVIFRDHNGHVMILEVQEQ	0.514
DEEHLKRVNETVMDIVKNNDPNQLREMVDPNVKVDVGDQRVHGRDKAAEVVKEWEKHVDRVTIRHVSVHNGRVRVVFQLESNGKTKDVQILFVYENGRIHSMRFTSQ	0.933
DEEHLLSRLAKEFWEDWKQGDPNKASKQADKDVHVQIGDKEYHGREHLERLFKEVKKDVDHNTSRITDLKVDENHIDLKVSFSMNVNGQNITMVVDVKMRIVNGHAKAVDIKYK	1.37
DEEHMEHFREVMEQNDPDELNELVDPNARLVIGDKKYHGRDTVVKLIKRFWSKADHNRLRSLTIRNGRASWRMQATVNGQRLDFTVEAVFHNGRLKTMRFKFRDRSQVDHFRRLLQ	1.74
DEEHMQELAEELVKVMKRGDFKRYLDLASENAEVTYGEKSVRGREDLHKMQEELEKKVDHIHMKDFRVSGNQIHLFFVVHHDGRSREVVVTIEYHNGRITSVTYDEK	-0.075
DEEHNERVAEEINRIMRDGDEERFEEMVDEDVKLQVGDKTWSGREEARKWQHEMWNSVDHVHIQDFEVSGDEIVIHFQLEHNGRREQAVVIVRFSNGRIKMMTIETQ	1.41
DEEHNKEVMENIITGNSDEMRKMVDPNAQLEIGDKRYHGRDQIDTFEHLMRDRVDNLEVKRYDLQGDKVHVDYVFVVNGKHARVRVSFSVKNGRFTQIRIEVTDEEVEKILREVQK	1.17
DEEHNQRLAERVAKVVQSGDEEEFEKQADPNVKVVYGDKTYHGNSEAMNAIKQIRKQADTVSVQSVDVHGDTARIQMRFDVNGKDRIVKVTVQVDNGRVVEVRFHET	1.12
DEEHQHSLARTLATALRTGDPEKMKDLADKDVKVVVGDKHIKGRKDAKKWAKDWRDRYDHAQVDDVNVQGENVRIVMNVEVDGHNVVVVMTAIIDGDQVKNVKVTARNEEQEKKMKK	-0.268
DEEHQKEVLEHMTTNDPQFLRDLADEDVRVNVGDKEVKGREEFRRVLEHELRRIDRIQVKRVHVEGEKFKIDRKVTFDGKTLDYEVNFTIHNGRLKQMRVQARSEDLEEKMKELHG	0.36
DEEHQKHFEQFVKAMETGDEERLAQLVDKDVEISYGDKTIHGREELRKRVREIKEELRLTMDFKRITVRGDKVQANFKASMNHNGQPVSFKAHVTVTAHNGTIKSVSLSNHK	1.1
DEEHQKIAKEALEQIQTGDEDEIKRQFDPNAKLQVGDQSVHGRETAAKFVRDRRRQMRIHLDDVDVKAKNGHVRLMMDVEVDHNGHPTKHRQVMIVKIHNGQIKKMTVNERD	-0.028
DEEHQKKMAEDFVKALERGDKDQFHSLFDENAKMQYGDKTVHGREDVKRWVEHVKERVDHLKVDKIEVSGNKVVLKMVINVDGQRLDMVITIHLHNGHIQSAEARVTDPDQERKANS	1.26
DEEHRAKTAQDDIRRINQNGDPDQMHRLADKDARIQIGDTFLHGREQIKEQMERDNKKFDHQQVEIKKVEVRGDKVRIVAEIKADFNGDNKTTRFVIYLTVKNGRVKMKKVTDG	-0.194
DEEHREDSIRKVFEVLQTGDPKRFRENVDKNAKARVGDREVRGTKAADTFAHNIVKRADHVRIRRVHVHNGVVVVTEQQTVNGKEVIMVVFMEMNNGKMKLVEVNPEQLKELEG	-0.394
DEEHVDQLLRKIFEILRNGDEKKLQDNFDPNVKATYGDRDITGMHSIAKTLAELFQRADHVNLRSMEVNGDKMRMQVSVQVDGRRATLEVNMRQHNGKVKELNLDPRRIKQFES	-0.169
DEEHVDRVVKVLQHNDEEQFKRNAPPDARINIGDKQYRGREDAVEALSELWHRADHIRLHDITVRGNKIEMDMVFVVNGQHVRVVLDVEMRNGKVEQIDAHVTDEKDEENLQRAMD	0.393
DEEHVKKIIKKVADDLQRGDEDNLKHLMDKDVRVEIGDKEVRGKDEAAKELAKFLSRADHFQVDHVDVKGNNARIHVLVNINGRERRVTLILTMHNGRLKNVRFDPENEQTLRN	1.18
DEEHVKRMATTFAKQMRHNNPDDIMKQMDKNVQLRYGDKEVEGDENVRRRLKTLHDQVDHVEVKDYTAHGNSIRIVVRLEVNGKTANFVLIVIVENGRVLKANIDPKALDSYEK	0.253
DEEHVRRQAKQVNDILTTGDENKMLEMAPPDAKLEYGDRHVTGREHIRRMVHEQKKQIDDFKIDTYSVSGNEVRVRFVARVNGQEADFEITIVFKNGRIHEIKVDPDALQQMRK	0.256
DEEHWRKIAEDFMHALRTGDPRTLRKLMDEDVQYVYGDQRVTGHEEAANRFHELRQKVDHVTVKHIEVQGNKVVIDVVMQVNGKEARMTIVIVFENGRAKVLTFDPEQIKKLEG	1.23
DEEIEDMIRKLIHAIRSGDEKKIKDNFDKDVDVDVGDKTLHGREHLTKRIAETRRQLKVRITSLHVHVRGEQVRVQVTMERTVNGRPQRHHNVFELQVHNGRVKRVSVKSDG	1.08
DEEIERRVENRLKALEEGDEDKVRDNVDPNVRIHVGDKVWHGREHARDFARQQKEHARRKVDEYSVRVNNGKLSVKQRFKEDRNGQPREDHQQYSADIHNGTLKDMTVTKDG	0.608
